The FLAb antibody collection (doi:10.7554/elife.23156)

B1: scFv; the commonest letter at each place (parent)
chain 1: EVKLDETGGGLVQPGRPMKLSCVASGFTFSDYWMNWVRQSPEKGLEWVAQIRNKPYNYETYYSDSVKGRFTISRDDSKSSVYLQMNNLRVEDMGIYYCTGSYYGMDYWGQGTSVTVS
chain 2: DVVMTQTPLSLPVSLGDQASISCRSSQSLVHSNGNTYLRWYLQKPGQSPKVLIYKVSNRFSGVPDRFSGSGSGTDFTLKISRVEAEDLGVYFCSQSTHVPWTFGGGTKLEIK

Experiments:
fluorescein = variants of: B1; test: Kd (Tite-Seq); details: with fluorescein; format: scFv 4-4-20, heavy + light
[1] = variants of: B1; test: yeast surface expression (ratio to wild type); higher = more expressed; details: format: scFv 4-4-20, heavy + light

Variant | Kd (fluorescein) | yeast surface expression [1]
chain 1 EVKLDETGGGLVQPGRPMKLSCVASGFTFFDYWENWVRQSPEKGLEWVAQIRNKPYNYETYYSDSVKGRFTISRDDSKSSVYLQMNNLRVEDMGIYYCTGSYYGMDYWGQGTSVTVS chain 2 DVVMTQTPLSLPVSLGDQASISCRSSQSLVHSNGNTYLRWYLQKPGQSPKVLIYKVSNRFSGVPDRFSGSGSGTDFTLKISRVEAEDLGVYFCSQSTHVPWTFGGGTKLEIK [chain 1 S30F M34E] | ≤ 0.316 nM | 0.0981
chain 1 EVKLDETGGGLVQPGRPMKLSCVASGFTFFDYWYNWVRQSPEKGLEWVAQIRNKPYNYETYYSDSVKGRFTISRDDSKSSVYLQMNNLRVEDMGIYYCTGSYYGMDYWGQGTSVTVS chain 2 DVVMTQTPLSLPVSLGDQASISCRSSQSLVHSNGNTYLRWYLQKPGQSPKVLIYKVSNRFSGVPDRFSGSGSGTDFTLKISRVEAEDLGVYFCSQSTHVPWTFGGGTKLEIK [chain 1 S30F M34Y] | 8.71 nM | 0.762
chain 1 EVKLDETGGGLVQPGRPMKLSCVASGFTFFDYWMCWVRQSPEKGLEWVAQIRNKPYNYETYYSDSVKGRFTISRDDSKSSVYLQMNNLRVEDMGIYYCTGSYYGMDYWGQGTSVTVS chain 2 DVVMTQTPLSLPVSLGDQASISCRSSQSLVHSNGNTYLRWYLQKPGQSPKVLIYKVSNRFSGVPDRFSGSGSGTDFTLKISRVEAEDLGVYFCSQSTHVPWTFGGGTKLEIK [chain 1 S30F N35C] | ≥ 10000 nM | 0.555
chain 1 EVKLDETGGGLVQPGRPMKLSCVASGFTFFDYWMHWVRQSPEKGLEWVAQIRNKPYNYETYYSDSVKGRFTISRDDSKSSVYLQMNNLRVEDMGIYYCTGSYYGMDYWGQGTSVTVS chain 2 DVVMTQTPLSLPVSLGDQASISCRSSQSLVHSNGNTYLRWYLQKPGQSPKVLIYKVSNRFSGVPDRFSGSGSGTDFTLKISRVEAEDLGVYFCSQSTHVPWTFGGGTKLEIK [chain 1 S30F N35H] | ≥ 10000 nM | 0.53
chain 1 EVKLDETGGGLVQPGRPMKLSCVASGFTFFDYWMTWVRQSPEKGLEWVAQIRNKPYNYETYYSDSVKGRFTISRDDSKSSVYLQMNNLRVEDMGIYYCTGSYYGMDYWGQGTSVTVS chain 2 DVVMTQTPLSLPVSLGDQASISCRSSQSLVHSNGNTYLRWYLQKPGQSPKVLIYKVSNRFSGVPDRFSGSGSGTDFTLKISRVEAEDLGVYFCSQSTHVPWTFGGGTKLEIK [chain 1 S30F N35T] | ≥ 10000 nM | 0.588
chain 1 EVKLDETGGGLVQPGRPMKLSCVASGFTFFDYWMTPVRQSPEKGLEWVAQIRNKPYNYETYYSDSVKGRFTISRDDSKSSVYLQMNNLRVEDMGIYYCTGSYYGMDYWGQGTSVTVS chain 2 DVVMTQTPLSLPVSLGDQASISCRSSQSLVHSNGNTYLRWYLQKPGQSPKVLIYKVSNRFSGVPDRFSGSGSGTDFTLKISRVEAEDLGVYFCSQSTHVPWTFGGGTKLEIK [chain 1 S30F N35T W36P] | ≥ 10000 nM | 1.41
chain 1 EVKLDETGGGLVQPGRPMKLSCVASGFTFFDYWMNWMRQSPEKGLEWVAQIRNKPYNYETYYSDSVKGRFTISRDDSKSSVYLQMNNLRVEDMGIYYCTGSYYGMDYWGQGTSVTVS chain 2 DVVMTQTPLSLPVSLGDQASISCRSSQSLVHSNGNTYLRWYLQKPGQSPKVLIYKVSNRFSGVPDRFSGSGSGTDFTLKISRVEAEDLGVYFCSQSTHVPWTFGGGTKLEIK [chain 1 S30F V37M] | 1.28 nM | 0.669
chain 1 EVKLDETGGGLVQPGRPMKLSCVASGFTFFDYWMNDVRQSPEKGLEWVAQIRNKPYNYETYYSDSVKGRFTISRDDSKSSVYLQMNNLRVEDMGIYYCTGSYYGMDYWGQGTSVTVS chain 2 DVVMTQTPLSLPVSLGDQASISCRSSQSLVHSNGNTYLRWYLQKPGQSPKVLIYKVSNRFSGVPDRFSGSGSGTDFTLKISRVEAEDLGVYFCSQSTHVPWTFGGGTKLEIK [chain 1 S30F W36D] | ≥ 10000 nM | 0.448
chain 1 EVKLDETGGGLVQPGRPMKLSCVASGFTFFDHWMNWVRQSPEKGLEWVAQIRNKPYNYETYYSDSVKGRFTISRDDSKSSVYLQMNNLRVEDMGIYYCTGSYYGMDYWGQGTSVTVS chain 2 DVVMTQTPLSLPVSLGDQASISCRSSQSLVHSNGNTYLRWYLQKPGQSPKVLIYKVSNRFSGVPDRFSGSGSGTDFTLKISRVEAEDLGVYFCSQSTHVPWTFGGGTKLEIK [chain 1 S30F Y32H] | 50.7 nM | 0.679
chain 1 EVKLDETGGGLVQPGRPMKLSCVASGFTFFDQWMNWVRQSPEKGLEWVAQIRNKPYNYETYYSDSVKGRFTISRDDSKSSVYLQMNNLRVEDMGIYYCTGSYYGMDYWGQGTSVTVS chain 2 DVVMTQTPLSLPVSLGDQASISCRSSQSLVHSNGNTYLRWYLQKPGQSPKVLIYKVSNRFSGVPDRFSGSGSGTDFTLKISRVEAEDLGVYFCSQSTHVPWTFGGGTKLEIK [chain 1 S30F Y32Q] | ≥ 10000 nM | 0.653
chain 1 EVKLDETGGGLVQPGRPMKLSCVASGFTFGDYWMNWVRQSPEKGLEWVAQIRNKPYNYETYYSDSVKGRFTISRDDSKSSVYLQMNNLRVEDMGIYYCTGSYYGMDYWGQGTSVTVS chain 2 DVVMTQTPLSLPVSLGDQASISCRSSQSLVHSNGNTYLRWYLQKPGQSPKVLIYKVSNRFSGVPDRFSGSGSGTDFTLKISRVEAEDLGVYFCSQSTHVPWTFGGGTKLEIK [chain 1 S30G] | 0.67 nM | 1.12
chain 1 EVKLDETGGGLVQPGRPMKLSCVASGFTFGHYWMNWVRQSPEKGLEWVAQIRNKPYNYETYYSDSVKGRFTISRDDSKSSVYLQMNNLRVEDMGIYYCTGASYGMEYLGQGTSVTVS chain 2 DVVMTQTPLSLPVSLGDQASISCRSSQSLVHSNGNTYLRWYLQKPGQSPKVLIYKVSNRFSGVPDRFSGSGSGTDFTLKISRVEAEDLGVYFCSQSTHVPWTFGGGTKLEIK [chain 1 S30G D31H S101A Y102S D106E W108L] | 0.351 nM | 0.844
